Laboratory results from paper PMC7035337 (2020).

Biological target: T1, DSP_linker (Homo sapiens (Human), UniProt P15924)
T1 chain: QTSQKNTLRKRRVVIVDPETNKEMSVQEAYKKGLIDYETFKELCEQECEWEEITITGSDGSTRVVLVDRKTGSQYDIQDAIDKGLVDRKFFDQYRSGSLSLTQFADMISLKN
Experiment: MST

Kd: > 800 µM
B1: VIM_rod (protein)
chain 1: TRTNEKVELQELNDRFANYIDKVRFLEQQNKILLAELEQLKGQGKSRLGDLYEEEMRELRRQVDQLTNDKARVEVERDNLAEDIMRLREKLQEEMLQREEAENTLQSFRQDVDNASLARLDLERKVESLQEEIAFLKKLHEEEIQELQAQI
chain 2: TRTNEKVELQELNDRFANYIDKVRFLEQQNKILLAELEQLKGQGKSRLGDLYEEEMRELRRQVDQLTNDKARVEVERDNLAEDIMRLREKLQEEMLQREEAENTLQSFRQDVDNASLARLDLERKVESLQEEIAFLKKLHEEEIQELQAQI
